Here are results for ten molecules from patent publication US7053177B1, “Random peptides that bind to gastro-intestinal tract (GIT) transport receptors and related methods” (Cytogen Corporation, priority 1997, dated 2006).

Data set [1] in a line: Peptide stability in simulated intestinal fluid (SIF). The settings on record: rank of relative stability to SIF. The format is in vitro ADME. As for the experimental part: Peptide (3.25 mg) was dissolved in 3.25 ml of 10,000 fold diluted SIF solution at 37° C. Aliquots (0.7 ml) of the digestion solution were then withdrawn at <1 min, 1h, 3h, and 21h or 24h. The samples were quickly passed through a syringe filter (Millipore Millex-GV 0.22 μm, part# SLGV025LS, lot# H2BM95250) and 300 μL of the filtered solution was immediately injected onto a Hewlett-Packard HPLC system equipped with a C-8 column (Applied Biosystems column and guard column: column-p/n 0711-0023 Spheri-5 ODS 5 μm, 220×4.6 mm). The products were eluted at 1.5 ml/min using an acetonitrile-water gradient. The major fluorescent peaks were collected, lyopholized and identified by MS analysis.

The target in data set [2] is bovine serum albumin (bovine) (UniProt P02769). The experiment in a line: phage ELISA on coated BSA. For orientation: ELISA stands for enzyme-linked immunosorbent assay.
Data set [3] concerns the target T1, recombinant D2H receptor domain (human D2H transporter, amino acid residues 387-685), His-tag fusion protein (human) (UniProt Q07837).
T1 sequence: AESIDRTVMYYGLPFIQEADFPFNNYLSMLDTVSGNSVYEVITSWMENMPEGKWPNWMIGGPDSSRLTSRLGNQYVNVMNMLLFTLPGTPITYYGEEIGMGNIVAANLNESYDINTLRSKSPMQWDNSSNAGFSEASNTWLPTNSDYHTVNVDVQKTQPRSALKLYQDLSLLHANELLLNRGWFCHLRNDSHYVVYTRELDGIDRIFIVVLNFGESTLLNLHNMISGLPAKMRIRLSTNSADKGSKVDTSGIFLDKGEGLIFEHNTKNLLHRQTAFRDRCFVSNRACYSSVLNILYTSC
The data set is described as follows: phage ELISA, OD on D2H over OD on BSA.

The target in data set [4] is T1, recombinant D2H receptor domain (human D2H transporter, amino acid residues 387-685), His-tag fusion protein (human). The experiment in a line: phage ELISA on coated D2H.
Data set [5] has as its target T2, recombinant HPT1 receptor domain (human intestinal peptide-associated transporter HPT1, amino acid residues … (human, UniProt Q12864 29-273)).
T2 construct: purified under denaturing conditions; coated on plates
T2 sequence: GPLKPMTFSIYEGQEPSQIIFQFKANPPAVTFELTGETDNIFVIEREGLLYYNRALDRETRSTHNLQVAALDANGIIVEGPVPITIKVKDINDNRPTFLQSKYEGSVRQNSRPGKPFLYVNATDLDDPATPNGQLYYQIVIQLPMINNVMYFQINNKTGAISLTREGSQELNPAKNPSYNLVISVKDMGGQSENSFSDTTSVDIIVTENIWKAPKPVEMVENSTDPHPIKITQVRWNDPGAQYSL
The experiment in a line: phage ELISA, OD on HPT1 over OD on BSA. On the procedure: 6.6. Receptor ELISA Procedure 96 well plates were coated overnight with GIT receptor, BSA and, optionally, IDE (insulin degrading enzyme, an irrelevant His-fusion protein)or hTF. The plates were blocked for one hour with 0.5% BSA-PBS. After clarification, the amplified phage were diluted 1:100 in 1% BSA plus 0.05% Tween 20 in PBS and added to the plates. Following incubation of the plates on a rotator for 1 to 2 hours, the plates were washed 5 times with 1% BSA plus 0.05% Tween 20 in PBS. […] After the plates were washed 5 times, as described above, TMB substrate was added to the wells. The plates were read at 650 nm absorbance.

In data set [6] the target is T3, recombinant HPT1 receptor domain (human intestinal peptide-associated transporter HPT1, amino acid residues 29-273), His-tag fusion protein (human) (UniProt Q12864).
T3 sequence: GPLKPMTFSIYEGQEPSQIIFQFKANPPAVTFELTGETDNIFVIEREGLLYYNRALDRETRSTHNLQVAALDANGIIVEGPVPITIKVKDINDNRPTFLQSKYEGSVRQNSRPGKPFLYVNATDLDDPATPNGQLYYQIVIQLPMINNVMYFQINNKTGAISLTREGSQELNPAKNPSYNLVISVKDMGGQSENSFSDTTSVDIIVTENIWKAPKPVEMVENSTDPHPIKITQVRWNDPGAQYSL
The experiment in a line: phage ELISA on coated HPT1.

Data set [7] concerns the target T3, recombinant HPT1 receptor domain (human intestinal peptide-associated transporter HPT1, amino acid residues 29-273), His-tag fusion protein (human). The experiment in a line: phage ELISA, OD on HPT1 over OD on BSA.

Square brackets hold non-standard residues; d marks the D form. Ends that are not written are not given here. Peptide text beside a SMILES is read from it. * marks the point of attachment. Dansyl = CN(C)c1cccc2c(S(=O)(=O)*)cccc12

Sequence of bovine serum albumin (bovine) (P02769 25-607 limits assumed): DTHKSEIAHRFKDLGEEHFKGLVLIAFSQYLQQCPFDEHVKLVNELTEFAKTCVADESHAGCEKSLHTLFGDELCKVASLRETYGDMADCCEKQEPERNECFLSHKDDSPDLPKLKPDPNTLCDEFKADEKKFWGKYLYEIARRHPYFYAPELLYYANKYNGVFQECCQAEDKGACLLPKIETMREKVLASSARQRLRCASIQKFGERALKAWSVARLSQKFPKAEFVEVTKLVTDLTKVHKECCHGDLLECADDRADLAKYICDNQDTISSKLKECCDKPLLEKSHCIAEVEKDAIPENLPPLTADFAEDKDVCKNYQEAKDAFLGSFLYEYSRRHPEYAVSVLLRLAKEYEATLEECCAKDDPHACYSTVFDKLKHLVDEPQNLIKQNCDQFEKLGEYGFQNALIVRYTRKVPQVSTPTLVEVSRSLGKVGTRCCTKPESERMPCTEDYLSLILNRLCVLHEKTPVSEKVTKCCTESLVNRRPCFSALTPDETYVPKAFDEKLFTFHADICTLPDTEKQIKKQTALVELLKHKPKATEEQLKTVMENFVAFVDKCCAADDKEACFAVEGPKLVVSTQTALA

As to `C[C@@H](O)[C@H](NC(=O)[C@@H](N)CCCCNS(=O)(=O)c1cccc2c(N(C)C)cccc12)C(=O)N[C@@H](CCCNC(=N)N)C(=O)N[C@@H](CCCCN)C(=O)N[C@@H](CO)C(=O)N[C@@H](CO)C(=O)N[C@H](CCCNC(=N)N)C(=O)N[C@@H](CO)C(=O)N[C@@H](CC(N)=O)C(=O)N1CCC[C@H]1C(=O)N[C@@H](CCCNC(=N)N)C(=O)NCC(=O)N[C@H](CCCNC(=N)N)C(=O)N[C@@H](CCCNC(=N)N)C(=O)N[C@@H](Cc1c[nH]cn1)C(=O)N1CCC[C@H]1C(=O)NCC(N)=O` [ZElan054, H2N-K(dns)TRKSSrSNPRGrRHPG-CONH2] (H-K(Dansyl)TRKSS[dR]SNPRG[dR]RHPG-NH2), in data set [1], the “Rel. Stab.” value is reported as 2.

On to `C[C@@H](O)[C@H](NC(=O)[C@@H](N)CCCCNS(=O)(=O)c1cccc2c(N(C)C)cccc12)C(=O)N[C@@H](CCCNC(=N)N)C(=O)N[C@@H](CCCCN)C(=O)N[C@@H](CO)C(=O)N[C@@H](CO)C(=O)N[C@@H](CCCNC(=N)N)C(=O)N[C@@H](CO)C(=O)N[C@@H](CC(N)=O)C(=O)N1CCC[C@H]1C(=O)N[C@@H](CCCNC(=N)N)C(=O)NCC(=O)N[C@@H](CCCNC(=N)N)C(=O)N[C@@H](CCCNC(=N)N)C(=O)N[C@@H](Cc1c[nH]cn1)C(=O)N1CCC[C@H]1C(=O)NCC(N)=O` [ZElan031] (H-K(Dansyl)TRKSSRSNPRGRRHPG-NH2), for which the “Rel. Stab.” value in data set [1] is listed as 3.

For the molecule `C[C@@H](O)[C@H](NC(=O)[C@@H](N)CCCCNS(=O)(=O)c1cccc2c(N(C)C)cccc12)C(=O)N[C@H](CCCNC(=N)N)C(=O)N[C@@H](CCCCN)C(=O)N[C@@H](CO)C(=O)N[C@@H](CO)C(=O)N[C@H](CCCNC(=N)N)C(=O)N[C@@H](CO)C(=O)N[C@@H](CC(N)=O)C(=O)N1CCC[C@H]1C(=O)N[C@H](CCCNC(=N)N)C(=O)NCC(=O)N[C@H](CCCNC(=N)N)C(=O)N[C@H](CCCNC(=N)N)C(=O)N[C@@H](Cc1c[nH]cn1)C(=O)N1CCC[C@H]1C(=O)NCC(N)=O` [ZElan053, H2N-K(dns)TrKSSrSNPrGrrHPG-CONH2] (H-K(Dansyl)T[dR]KSS[dR]SNP[dR]G[dR][dR]HPG-NH2), the “Rel. Stab.” value in data set [1] is listed as 1.

For the molecule RYKHDIGCDAGVDKKSSSVRGGCGAHSSPPRAGRGPRGTMVSRL [phage DCX8], the OD is 0.063 OD 650 nm in data set [2] and 0.163 OD 650 nm in data set [4]. For the same molecule, in data set [3], the D2H/BSA came out at 3.

B1: phage HAX40 (peptide)
peptide: REFAERRLWGCDDLSWRLDAEGCGPTPSNRAVKHRKPRPRSPAL
modifications: cysteine pairing not given here; also: displayed as N-terminal pIII fusion on M13 phage
notes: M13 phage displaying this insert as N-terminal pIII fusion; whole phage in the ELISA; also called H44; not shown: M13 pIII display protein and the vector-encoded flanking residues
As to B1, the OD in data set [2] was 0.065 OD 650 nm. Moreover, the HPT/BSA in data set [5] amounted to 15 ratio.

B2: phage HAX42 (peptide, not shown: large carriers)
peptide: SDHALGTNLRSDNAKEPGDYNCCGNGNSTGRKVFNRRRPSAIPT
modifications: cysteine pairing not given here; also: displayed as N-terminal pIII fusion on M13 phage
For B2, the values for the OD in data set [6] and in data set [2] were 0.32 OD 650 nm and 0.071 OD 650 nm, respectively. Besides, the HPT/BSA in data set [7] was determined as 5.

B3: phage HCA3 (peptide)
peptide: RHISEYSFANSHLMGGESKRKGCGINGSFSPTCPRSPTPAFRRT
modifications: cysteine pairing not given here; also: displayed as N-terminal pIII fusion on M13 phage
notes: M13 phage displaying this insert as N-terminal pIII fusion; whole phage in the ELISA; not shown: M13 pIII display protein and the vector-encoded flanking residues
With B3, the OD in data set [2] worked out at 0.038 OD 650 nm. For the same molecule, the HPT1/BSA in data set [5] turned out to be 1 ratio.

For the molecule RYSGLSPRDNGPACSQEATLEGCGAQRLMSTRRKGRNSRPGWTL [phage DCX42], the values for the OD in data set [2] and in data set [4] were 0.065 OD 650 nm and 0.158 OD 650 nm, respectively. The D2H/BSA in data set [3] worked out at 2.

For the molecule SQGSKQCMQYRTGRLTVGSEYGCGMNPARHATPAYPARLLPRYR [phage DCX11], the figures for the OD in data set [2] and in data set [4] were 0.071 OD 650 nm and 0.222 OD 650 nm, respectively. Further, the D2H/BSA in data set [3] worked out at 3.

Regarding SREEANWDGYKREMSHRSRFWDATHLSRPRRPANSGDPN (peptide, not shown: large carriers, also: displayed as N-terminal pIII fusion on M13 phage) [phage HAX9], the OD in data set [6] stood at 0.382 OD 650 nm; in data set [2], 0.075 OD 650 nm. In addition, in data set [7], the HPT/BSA came to 5.
